According to paper PMC9274624:

Experiments:
Assay in all cases: SPR
[1] = target: wild Bactrian camel ACE2 extracellular domain (residues 1-740) fused with the Fc domain of mouse IgG (wild Bactrian camel)
[2] = target: rabbit ACE2 extracellular domain (residues 1-740) fused with the Fc domain of mouse IgG (rabbit) (UniProt G1TEF4)
[3] = target: big-eared horseshoe bat ACE2 extracellular domain (residues 1-740) fused with the Fc domain of mouse IgG (big-eared horseshoe bat)
[4] = target: pig ACE2 extracellular domain (residues 1-740) fused with the Fc domain of mouse IgG (pig) (UniProt K7GLM4)
[5] = target: monkey ACE2 extracellular domain (residues 1-740) fused with the Fc domain of mouse IgG (monkey) (UniProt F7AH40)
[6] = target: raccoon dog ACE2 extracellular domain (residues 1-740) fused with the Fc domain of mouse IgG (raccoon dog) (UniProt B4XEP4)
[7] = target: alpaca ACE2 extracellular domain (residues 1-740) fused with the Fc domain of mouse IgG (alpaca)
[8] = target: mink ACE2 extracellular domain (residues 1-740) fused with the Fc domain of mouse IgG (mink)
[9] = target: sheep ACE2 extracellular domain (residues 1-740) fused with the Fc domain of mouse IgG (sheep)
[10] = target: horse ACE2 extracellular domain (residues 1-740) fused with the Fc domain of mouse IgG (horse) (UniProt F6V9L3)
[11] = target: fulvous fruit bat ACE2 extracellular domain (residues 1-740) fused with the Fc domain of mouse IgG (fulvous fruit bat)
[12] = target: fox ACE2 extracellular domain (residues 1-740) fused with the Fc domain of mouse IgG (fox)
[13] = target: goat ACE2 extracellular domain (residues 1-740) fused with the Fc domain of mouse IgG (goat)

In the case of “SARS-CoV-2 Delta RBD (residues 319-541) (from UniProt P0DTC2 319-541) (domain or fragment)”, the Kd [1] is reported as 233 nM, the Kd [2] is reported as 58.3 nM and the Kd [3] is reported as 49.6 nM. For the same substance, the Kd [4] was 64.4 nM, the Kd [5] was 16.5 nM and the Kd [6] was 124 nM. For the same substance, the Kd [7] was 381 nM, the Kd [8] was 288 nM and the Kd [9] was 61 nM. For the same substance, the Kd [10] was 79 nM, the Kd [11] was 200 nM and the Kd [12] was 35.6 nM. It also gave a Kd [13] of 66.2 nM.
